Source: patent US20090208512A1

Molecular target: human recombinant Factor VIII (human) (UniProt P00451)
Experiment: cell-based or functional assay

Chain of UniProt P00451 (P00451 20-2351): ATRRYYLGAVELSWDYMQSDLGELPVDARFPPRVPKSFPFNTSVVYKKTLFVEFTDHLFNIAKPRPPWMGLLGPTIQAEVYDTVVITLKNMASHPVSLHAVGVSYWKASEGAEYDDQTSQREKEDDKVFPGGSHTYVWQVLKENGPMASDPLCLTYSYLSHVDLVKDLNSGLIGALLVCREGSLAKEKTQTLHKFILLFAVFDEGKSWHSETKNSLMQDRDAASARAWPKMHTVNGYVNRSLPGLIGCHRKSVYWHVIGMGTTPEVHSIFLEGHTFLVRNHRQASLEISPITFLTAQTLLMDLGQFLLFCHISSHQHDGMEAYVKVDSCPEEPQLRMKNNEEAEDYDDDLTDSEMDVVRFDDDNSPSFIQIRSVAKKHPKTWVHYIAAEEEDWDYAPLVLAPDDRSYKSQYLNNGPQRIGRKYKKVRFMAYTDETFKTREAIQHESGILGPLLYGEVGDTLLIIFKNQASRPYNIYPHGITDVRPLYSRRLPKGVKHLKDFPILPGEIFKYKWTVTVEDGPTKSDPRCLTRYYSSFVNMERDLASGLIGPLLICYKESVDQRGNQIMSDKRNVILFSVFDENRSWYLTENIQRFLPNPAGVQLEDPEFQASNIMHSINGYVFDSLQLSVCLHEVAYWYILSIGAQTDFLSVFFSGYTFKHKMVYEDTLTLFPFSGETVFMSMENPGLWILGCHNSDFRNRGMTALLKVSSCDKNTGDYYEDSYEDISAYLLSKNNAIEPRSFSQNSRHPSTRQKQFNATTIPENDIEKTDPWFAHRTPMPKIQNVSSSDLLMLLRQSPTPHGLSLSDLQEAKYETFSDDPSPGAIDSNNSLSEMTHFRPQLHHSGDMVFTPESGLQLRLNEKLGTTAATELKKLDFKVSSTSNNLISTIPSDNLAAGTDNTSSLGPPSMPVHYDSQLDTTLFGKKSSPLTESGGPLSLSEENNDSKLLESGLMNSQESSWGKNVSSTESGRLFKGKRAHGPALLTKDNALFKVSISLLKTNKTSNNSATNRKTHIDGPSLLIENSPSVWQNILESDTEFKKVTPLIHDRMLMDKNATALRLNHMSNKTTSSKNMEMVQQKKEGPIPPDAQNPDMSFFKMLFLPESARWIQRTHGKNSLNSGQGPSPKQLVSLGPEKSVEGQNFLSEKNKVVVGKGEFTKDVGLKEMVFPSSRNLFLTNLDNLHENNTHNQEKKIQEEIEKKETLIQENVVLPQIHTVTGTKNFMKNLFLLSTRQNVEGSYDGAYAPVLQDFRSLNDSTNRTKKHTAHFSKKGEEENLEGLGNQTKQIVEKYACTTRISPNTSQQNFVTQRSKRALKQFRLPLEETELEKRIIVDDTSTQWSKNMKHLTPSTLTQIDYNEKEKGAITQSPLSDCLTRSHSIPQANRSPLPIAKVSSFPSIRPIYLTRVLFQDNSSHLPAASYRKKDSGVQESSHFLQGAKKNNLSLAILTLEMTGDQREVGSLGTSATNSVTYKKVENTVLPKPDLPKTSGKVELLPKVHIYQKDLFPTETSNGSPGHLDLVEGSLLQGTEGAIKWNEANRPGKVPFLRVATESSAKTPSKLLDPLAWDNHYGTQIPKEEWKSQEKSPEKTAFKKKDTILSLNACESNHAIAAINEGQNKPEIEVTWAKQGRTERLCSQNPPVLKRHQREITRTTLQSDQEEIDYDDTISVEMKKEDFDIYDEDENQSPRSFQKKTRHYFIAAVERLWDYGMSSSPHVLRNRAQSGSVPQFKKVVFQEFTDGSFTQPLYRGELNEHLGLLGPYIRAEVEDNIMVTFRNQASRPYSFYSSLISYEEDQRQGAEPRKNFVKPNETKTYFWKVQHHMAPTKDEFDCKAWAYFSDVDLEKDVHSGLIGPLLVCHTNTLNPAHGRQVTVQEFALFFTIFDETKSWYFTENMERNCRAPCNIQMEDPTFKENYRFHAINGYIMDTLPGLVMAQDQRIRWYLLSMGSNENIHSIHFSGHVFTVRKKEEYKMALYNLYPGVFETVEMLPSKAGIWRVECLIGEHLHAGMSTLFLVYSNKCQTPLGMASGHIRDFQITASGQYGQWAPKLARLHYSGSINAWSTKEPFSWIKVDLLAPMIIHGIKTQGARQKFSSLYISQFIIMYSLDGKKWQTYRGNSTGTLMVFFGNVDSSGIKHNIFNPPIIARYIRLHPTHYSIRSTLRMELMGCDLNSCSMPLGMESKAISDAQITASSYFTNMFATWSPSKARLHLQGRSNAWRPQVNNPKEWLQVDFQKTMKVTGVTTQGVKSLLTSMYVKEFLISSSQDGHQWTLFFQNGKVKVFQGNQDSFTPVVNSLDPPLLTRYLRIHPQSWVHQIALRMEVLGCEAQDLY

inhibition of hydrolysis of Factor VIII by anti-Factor VIII IgG: 36.9%
Substance: von Willebrand Factor (from UniProt P04275 764-2813)
